The results in this text go back to PMC9974832.

Values joined by “and” are separate entries in the source; they are usually repeats but may differ in a detail not shown here. Identical values can stand only once.

Assay [1] addresses pyruvate kinase (PK) M2 (PKM2) (mouse) (mouse (endogenous in isolated glomeruli)) (UniProt P52480). Kind of assay: cross-linking; lysates of mouse glomeruli or HRMCs (sodium phosphate buffer pH 7.3, 0.5% Triton X-100), 0.01% glutaraldehyde 5 min 37°C, stopped with 50 mM Tris-Cl pH 8.0; 10% SDS-PAGE, blot with anti-PKM2; samples from db/m, db/db, AAV-shARAP1 mice; NG/HG, ARAP1 shRNA, ARAP1 overexpression, AG1478 in cells.

The target of assay [2] is pyruvate kinase (PK) M2 (PKM2) (human (endogenous in HRMCs)) (UniProt P14618). Described as above.

pyruvate kinase (PK) M2 (PKM2) (mouse), P52480 1-531 (enzyme; other documents disagree on this pair), sequence (P52480 whole entry): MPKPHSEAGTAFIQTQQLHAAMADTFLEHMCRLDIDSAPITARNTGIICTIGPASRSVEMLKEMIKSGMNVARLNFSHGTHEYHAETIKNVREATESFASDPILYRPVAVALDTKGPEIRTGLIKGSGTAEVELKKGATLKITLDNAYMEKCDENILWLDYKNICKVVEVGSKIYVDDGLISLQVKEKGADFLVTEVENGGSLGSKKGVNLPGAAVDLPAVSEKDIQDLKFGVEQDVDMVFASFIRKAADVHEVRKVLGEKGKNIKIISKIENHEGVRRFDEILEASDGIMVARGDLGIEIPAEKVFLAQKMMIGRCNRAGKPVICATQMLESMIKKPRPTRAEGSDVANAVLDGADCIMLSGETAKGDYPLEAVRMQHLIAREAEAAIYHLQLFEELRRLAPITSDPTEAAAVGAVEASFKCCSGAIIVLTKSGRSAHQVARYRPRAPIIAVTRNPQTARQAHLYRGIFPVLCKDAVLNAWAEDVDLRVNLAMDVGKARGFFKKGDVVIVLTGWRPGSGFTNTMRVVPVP
pyruvate kinase (PK) M2 (PKM2), P14618 1-531 (enzyme; other documents disagree on this pair), sequence (P14618 whole entry): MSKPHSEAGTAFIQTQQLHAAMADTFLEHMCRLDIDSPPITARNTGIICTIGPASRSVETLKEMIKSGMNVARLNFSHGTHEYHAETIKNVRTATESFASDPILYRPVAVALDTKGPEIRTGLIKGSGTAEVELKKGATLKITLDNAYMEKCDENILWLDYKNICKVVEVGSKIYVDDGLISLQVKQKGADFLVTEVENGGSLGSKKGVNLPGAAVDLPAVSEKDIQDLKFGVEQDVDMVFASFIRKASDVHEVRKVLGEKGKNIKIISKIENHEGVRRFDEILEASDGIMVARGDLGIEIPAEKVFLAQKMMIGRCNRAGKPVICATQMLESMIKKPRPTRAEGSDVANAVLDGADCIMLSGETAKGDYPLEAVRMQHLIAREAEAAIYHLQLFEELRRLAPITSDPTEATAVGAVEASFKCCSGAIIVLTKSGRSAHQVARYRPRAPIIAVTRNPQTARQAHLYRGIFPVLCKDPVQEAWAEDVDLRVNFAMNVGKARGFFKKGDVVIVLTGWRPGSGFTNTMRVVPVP

In general, stoichiometry N refers to a count of units in the complex or per binding partner. Take “pyruvate kinase (PK) M2 (PKM2) (mouse), P52480 1-531 (enzyme; other documents disagree on this pair)”: in assay [1], the stoichiometry N is 2 and 4.

“pyruvate kinase (PK) M2 (PKM2), P14618 1-531 (enzyme; other documents disagree on this pair)” registered a stoichiometry N in assay [2] of 2.
